Reference: US20120108797A1 (AstraZeneca / MedImmune, published 2012)

What was measured:
[1] = target: T1, cynomolgus monkey uPAR, cell-bound (cynomolgus monkey, UniProt Q9GK78 23-305); assay: FACS on 293T cells expressing cynomolgus uPAR, GeoMean of the peak shift
T1 construct: whole, on cells; also called cyno-uPAR; uPAR on CHOK1 or 293T transfectants

[2] = target: T2, human urokinase-type plasminogen activator receptor (uPAR), cell-bound (human, UniProt Q03405 23-305); assay: FACS, B300.19/hu-uPAR cells
T2 construct: whole, on cells; Full length cDNA expressed on B300.19 and L929 transfectants; endogenous on U937 (and PC-3 used as positive control cells); also called hu-uPAR
T2 sequence (Q03405 23-305): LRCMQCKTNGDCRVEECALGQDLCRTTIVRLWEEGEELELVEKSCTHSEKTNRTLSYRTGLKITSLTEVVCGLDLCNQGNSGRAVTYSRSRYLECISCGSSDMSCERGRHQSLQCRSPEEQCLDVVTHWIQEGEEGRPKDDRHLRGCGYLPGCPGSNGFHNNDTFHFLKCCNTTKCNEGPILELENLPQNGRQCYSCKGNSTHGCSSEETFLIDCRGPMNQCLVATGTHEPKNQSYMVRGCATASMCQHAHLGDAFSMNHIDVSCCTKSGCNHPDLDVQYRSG
Experimental: Binding of the antibodies to cell-bound uPAR was tested with the murine pre-B cell line B300.19 (ATCC) transfected to express human uPAR, and B300.19 parental cells as a control, using Fluorometric Microvolume Assay Technology (FMAT). 5,000 cells/well were employed for the assay. […] The bound antibodies were detected using goat anti-human IgG Cy5 conjugate at 400 ng/ml (goat anti-mouse IgG Cy5 conjugate for mouse antibody control). […] For each dye stained, the ratio of the GeoMean values between positive and negative cells were tabulated.

T1 sequence (Q9GK78 23-305): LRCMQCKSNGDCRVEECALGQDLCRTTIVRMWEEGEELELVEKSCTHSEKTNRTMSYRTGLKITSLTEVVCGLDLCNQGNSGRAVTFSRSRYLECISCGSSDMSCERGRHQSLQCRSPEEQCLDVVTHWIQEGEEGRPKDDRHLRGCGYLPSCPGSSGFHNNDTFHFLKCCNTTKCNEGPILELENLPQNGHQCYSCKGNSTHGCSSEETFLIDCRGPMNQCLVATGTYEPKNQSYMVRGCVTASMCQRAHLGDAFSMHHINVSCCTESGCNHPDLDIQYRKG

| Binder | binding result [1] | gCy5 Geo Mean Pos Cells [2] |
| --- | --- | --- |
| 3.8.3 (antibody, V domains shown, Variable domains only; gamma 2 by chain name, kappa; also called 3.8.3g2; 3.8.3k) VH: EVQLVESGGGLVQPGGSLRLSCAASGFTFSSYWMSWVRQAPGKGLEWVANIKQHGSEKYYVDSVKGRFTISRDNAKNSLYLQMNSLRAEDTAVYYCAREEAYYYDNSGYYWYFDLWARGTLVTVSS VL: DIQMTQSPSSVSASIGDRVTITCRASQGISSWLAWYQQKPGKTPKLLIYAASSLQSGVPSRFSGSGSGTDFTLTISSLQPEDFATYYCQQADSFPWTFGQGTKVEIK | binds | – |
| 4.13.2 (antibody, V domains shown, Variable domains only; gamma 4 by chain name, kappa; also called 4.13.1; 4.13.1g4) VH: EVQLLESGGGLVQPGGSLRLSCAASGFTFSSYAMSWVRQAPGKGLEWVLGISGSGGSTYYADSVKGRFTISRDNSKNTLYLQMNSLRAEDTAVYYCAKDGYGDYVGWYFDLWGRGTLVTVSS VL: not shown | – | 282 |
